# In article PMC5432305, “Fungal lectin MpL enables entry of protein drugs into cancer cells and their subcellular targeting” (Oncotarget, 2017):
# T1: Papain (UniProt P00784 134-345)
# T1 construct: also called cysteine peptidase papain; cysteine protease papain; source: bought: Sigma
# T1 sequence (looked up): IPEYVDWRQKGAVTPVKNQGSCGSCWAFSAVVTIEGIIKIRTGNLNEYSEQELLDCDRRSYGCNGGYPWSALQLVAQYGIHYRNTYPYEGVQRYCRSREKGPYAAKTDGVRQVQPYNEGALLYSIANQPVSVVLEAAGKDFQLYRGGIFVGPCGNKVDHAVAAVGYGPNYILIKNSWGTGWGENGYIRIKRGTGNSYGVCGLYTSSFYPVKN
# T2: Papain (UniProt P00784 134-345)
# T2 chain: T1 sequence (looked up)
# B1: Recombinant cystatin C (CysC) (natural protein, human, UniProt P01034 27-146, looked up)
# chain: SSPGKPPRLVGGPMDASVEEEGVRRALDFAVGEYNKASNDMYHSRALQVVRARKQIVAGVNYFLDVELGRTTCTKTQPNLDNCPFHDQPHLKRKAFCSFQIYAVPWQGTMTLSKSTCQDA
# notes: Human cystatin C without its signal peptide of 26 amino acids; It was cloned through NdeI and BamHI into pET11a, so an initiator methionine is likely; also called unlinked CysC
# B2: Recombinant clitocypin (Clt) (natural protein, UniProt Q3Y9I6 1-152, looked up)
# chain: MASLEDGTYRLRAVTTSNPDPGVGGEYATVEGARQPVKAEPSTPPFFERQIWQVTRNSDGQSTIKYQGLNAPFEYGFSYDQLEQNAPVIAGDPKEYILQLVPSTTDVYIIRAPIQRVGVDVEVGVQGNNLVYKFFPVDGSGGDRPAWRFTRE
# notes: also called rClt; unlinked Clt; source: E. coli, purified as described [19]
# B3: Clt-MpL fusion protein (clitocypin, (GGGGS)3 linker, MpL) (other)
# chain: MASLEDGTYRLRAVTTSNPDPGVGGEYATVEGARQPVKAEPSTPPFFERQIWQVTRNSDGQSTIKYQGLNAPFEYGFSYDQLEQNAPVIAGDPKEYILQLVPSTTDVYIIRAPIQRVGVDVEVGVQGNNLVYKFFPVDGSGGDRPAWRFTREGGGGSGGGGSGGGGSMSTQVSSGQTYKITNVKAGTVIDLSGEDNKSIIGYPYHSGKNQQWTFNWTGKAWTLRSASSGSYLGIEGTPADGTRLVAVNDPFEWHIWRDEANENAFRIFVPFTNYNLDLSGYGDTTPGTPVQLWWTWEGLHQTWTIDRP
# modifications: Clitocypin species taken from the candidate for the printed accession Q3Y9I6; MpL species is printed. (GGGGS)3 linker kept because it joins the two domains. MpL Met1 may be absent in the fusion. Dimeric forms were observed; copies given per chain.
# B4: CysC-MpL fusion protein (cystatin C, (GGGGS)3 linker, MpL) (other)
# chain: SSPGKPPRLVGGPMDASVEEEGVRRALDFAVGEYNKASNDMYHSRALQVVRARKQIVAGVNYFLDVELGRTTCTKTQPNLDNCPFHDQPHLKRKAFCSFQIYAVPWQGTMTLSKSTCQDAGGGGSGGGGSGGGGSMSTQVSSGQTYKITNVKAGTVIDLSGEDNKSIIGYPYHSGKNQQWTFNWTGKAWTLRSASSGSYLGIEGTPADGTRLVAVNDPFEWHIWRDEANENAFRIFVPFTNYNLDLSGYGDTTPGTPVQLWWTWEGLHQTWTIDRP
# modifications: Cystatin C without its 26-residue signal peptide (stated for unlinked CysC, assumed for the fusion). (GGGGS)3 linker kept because it joins the two domains. Vector start Met not added; MpL Met1 may be absent in the fusion. Dimeric forms were observed; copies given per chain.
# Columns and labels:
# [1] = target: T1, Papain; assay: enzyme inhibition kinetics (Ki, Henderson equation for tight binding competitive inhibitors); papain 2.6 nM, different concentrations of inhibitor proteins, 0.1 M MES, 5 mM DTT, 0.1 mM Z-Phe-Arg-AMC, pH 6.5, 25°C, fluorescence 370/460 nm; settings: both partners purified
# [2] = target: T2, Papain
Binder,binding result [1],Ki [2]
B1,binds,0.0855 µM
B2,binds,0.0608 µM
B3,,0.161 µM
B4,,0.041 µM
